In US20140087995A1 (published 2014):
Numbered stars: 1 amine (or outer) side, 2 acyl side, 3 side chain; on linkers, the order of the positions; unused ones are H or OH. Bridge positions count the residues as written; N and C are the ends. Side chains are listed from the residue outwards. Ends that are not written are not given here. * marks the point of attachment. C20 diacid = O=C(O)CCCCCCCCCCCCCCCCCCC(=O)*; γGlu = O=C(O)[C@H](CCC(=O)[*:2])N[*:1]; AEEA = NCCOCCOCC(=O)O

T1: human calcitonin receptor (human, UniProt P30988 25-474)
T1 construct: whole, on cells; Used as cell membranes; also called hCTR; hCT
T1 sequence (looked up): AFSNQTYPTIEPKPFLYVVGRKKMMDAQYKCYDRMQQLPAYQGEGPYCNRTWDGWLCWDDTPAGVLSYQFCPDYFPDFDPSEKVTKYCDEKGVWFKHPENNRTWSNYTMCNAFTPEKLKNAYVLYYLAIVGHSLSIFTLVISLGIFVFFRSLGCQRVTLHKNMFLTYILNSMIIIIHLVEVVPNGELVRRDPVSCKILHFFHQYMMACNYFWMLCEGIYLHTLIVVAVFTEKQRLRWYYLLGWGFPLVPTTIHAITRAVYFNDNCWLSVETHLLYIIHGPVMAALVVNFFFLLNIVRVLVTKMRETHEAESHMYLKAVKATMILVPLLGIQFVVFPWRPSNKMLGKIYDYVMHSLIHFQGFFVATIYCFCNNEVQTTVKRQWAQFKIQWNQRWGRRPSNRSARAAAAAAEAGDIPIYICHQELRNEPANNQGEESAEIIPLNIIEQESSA

B1: N^ε1-[2-[2-[2-[[(4S)-4-carboxy-4-(19-carboxynonadecanoylamino)butanoyl]amino]ethoxy]ethoxy]acetyl]-[His14,Arg17,Pro21,Pro27,His34]-h-amylin (peptide)
peptide: K([AEEA-γGlu-C20 diacid])CNTATCATQRLAHFLRHSSPNFGAIPSSTNVGHNTY-NH2
modifications: disulfide 2-7; N-terminus assumed
SMILES: CC[C@H](C)[C@H](NC(=O)[C@H](C)NC(=O)CNC(=O)[C@H](Cc1ccccc1)NC(=O)[C@H](CC(N)=O)NC(=O)[C@@H]1CCCN1C(=O)[C@H](CO)NC(=O)[C@H](CO)NC(=O)[C@H](Cc1c[nH]cn1)NC(=O)[C@H](CCCNC(=N)N)NC(=O)[C@H](CC(C)C)NC(=O)[C@H](Cc1ccccc1)NC(=O)[C@H](Cc1c[nH]cn1)NC(=O)[C@H](C)NC(=O)[C@H](CC(C)C)NC(=O)[C@H](CCCNC(=N)N)NC(=O)[C@H](CCC(N)=O)NC(=O)[C@@H](NC(=O)[C@H](C)NC(=O)[C@@H]1CSSC[C@H](NC(=O)[C@@H](N)CCCCNC(=O)COCCOCCNC(=O)CC[C@H](NC(=O)CCCCCCCCCCCCCCCCCCC(=O)O)C(=O)O)C(=O)N[C@@H](CC(N)=O)C(=O)N[C@@H]([C@@H](C)O)C(=O)N[C@@H](C)C(=O)N[C@@H]([C@@H](C)O)C(=O)N1)[C@@H](C)O)C(=O)N1CCC[C@H]1C(=O)N[C@@H](CO)C(=O)N[C@@H](CO)C(=O)N[C@H](C(=O)N[C@@H](CC(N)=O)C(=O)N[C@H](C(=O)NCC(=O)N[C@@H](Cc1c[nH]cn1)C(=O)N[C@@H](CC(N)=O)C(=O)N[C@H](C(=O)N[C@@H](Cc1ccc(O)cc1)C(N)=O)[C@@H](C)O)C(C)C)[C@@H](C)O
notes: also called compound 80
B2: N^ε1-[2-[2-[2-[[(4S)-4-carboxy-4-(19-carboxynonadecanoylamino)butanoyl]amino]ethoxy]ethoxy]acetyl]-[His14,Arg17,Pro21,Pro27,Pro34]-h-amylin (peptide)
peptide: K([AEEA-γGlu-C20 diacid])CNTATCATQRLAHFLRHSSPNFGAIPSSTNVGPNTY-NH2
modifications: disulfide 2-7; N-terminus assumed
SMILES: CC[C@H](C)[C@H](NC(=O)[C@H](C)NC(=O)CNC(=O)[C@H](Cc1ccccc1)NC(=O)[C@H](CC(N)=O)NC(=O)[C@@H]1CCCN1C(=O)[C@H](CO)NC(=O)[C@H](CO)NC(=O)[C@H](Cc1c[nH]cn1)NC(=O)[C@H](CCCNC(=N)N)NC(=O)[C@H](CC(C)C)NC(=O)[C@H](Cc1ccccc1)NC(=O)[C@H](Cc1c[nH]cn1)NC(=O)[C@H](C)NC(=O)[C@H](CC(C)C)NC(=O)[C@H](CCCNC(=N)N)NC(=O)[C@H](CCC(N)=O)NC(=O)[C@@H](NC(=O)[C@H](C)NC(=O)[C@@H]1CSSC[C@H](NC(=O)[C@@H](N)CCCCNC(=O)COCCOCCNC(=O)CC[C@H](NC(=O)CCCCCCCCCCCCCCCCCCC(=O)O)C(=O)O)C(=O)N[C@@H](CC(N)=O)C(=O)N[C@@H]([C@@H](C)O)C(=O)N[C@@H](C)C(=O)N[C@@H]([C@@H](C)O)C(=O)N1)[C@@H](C)O)C(=O)N1CCC[C@H]1C(=O)N[C@@H](CO)C(=O)N[C@@H](CO)C(=O)N[C@H](C(=O)N[C@@H](CC(N)=O)C(=O)N[C@H](C(=O)NCC(=O)N1CCC[C@H]1C(=O)N[C@@H](CC(N)=O)C(=O)N[C@H](C(=O)N[C@@H](Cc1ccc(O)cc1)C(N)=O)[C@@H](C)O)C(C)C)[C@@H](C)O
notes: also called compound 68
B3: N^ε1-[2-[2-[2-[[(4S)-4-carboxy-4-(19-carboxynonadecanoylamino)butanoyl]amino]ethoxy]ethoxy]acetyl]-[His14,Arg17,Pro21,Pro27]-h-amylin (peptide)
peptide: K([AEEA-γGlu-C20 diacid])CNTATCATQRLAHFLRHSSPNFGAIPSSTNVGSNTY-NH2
modifications: disulfide 2-7; N-terminus assumed
SMILES: CC[C@H](C)[C@H](NC(=O)[C@H](C)NC(=O)CNC(=O)[C@H](Cc1ccccc1)NC(=O)[C@H](CC(N)=O)NC(=O)[C@@H]1CCCN1C(=O)[C@H](CO)NC(=O)[C@H](CO)NC(=O)[C@H](Cc1c[nH]cn1)NC(=O)[C@H](CCCNC(=N)N)NC(=O)[C@H](CC(C)C)NC(=O)[C@H](Cc1ccccc1)NC(=O)[C@H](Cc1c[nH]cn1)NC(=O)[C@H](C)NC(=O)[C@H](CC(C)C)NC(=O)[C@H](CCCNC(=N)N)NC(=O)[C@H](CCC(N)=O)NC(=O)[C@@H](NC(=O)[C@H](C)NC(=O)[C@@H]1CSSC[C@H](NC(=O)[C@@H](N)CCCCNC(=O)COCCOCCNC(=O)CC[C@H](NC(=O)CCCCCCCCCCCCCCCCCCC(=O)O)C(=O)O)C(=O)N[C@@H](CC(N)=O)C(=O)N[C@@H]([C@@H](C)O)C(=O)N[C@@H](C)C(=O)N[C@@H]([C@@H](C)O)C(=O)N1)[C@@H](C)O)C(=O)N1CCC[C@H]1C(=O)N[C@@H](CO)C(=O)N[C@@H](CO)C(=O)N[C@H](C(=O)N[C@@H](CC(N)=O)C(=O)N[C@H](C(=O)NCC(=O)N[C@@H](CO)C(=O)N[C@@H](CC(N)=O)C(=O)N[C@H](C(=O)N[C@@H](Cc1ccc(O)cc1)C(N)=O)[C@@H](C)O)C(C)C)[C@@H](C)O
notes: also called compound 69
B4: N^ε1-[2-[2-[2-[[(4S)-4-carboxy-4-(19-carboxynonadecanoylamino)butanoyl]amino]ethoxy]ethoxy]acetyl]-[Lys14,Arg17,Pro21,Pro27,Pro31]-h-amylin (peptide)
peptide: K([AEEA-γGlu-C20 diacid])CNTATCATQRLAKFLRHSSPNFGAIPSSTPVGSNTY-NH2
modifications: disulfide 2-7; N-terminus assumed
SMILES: CC[C@H](C)[C@H](NC(=O)[C@H](C)NC(=O)CNC(=O)[C@H](Cc1ccccc1)NC(=O)[C@H](CC(N)=O)NC(=O)[C@@H]1CCCN1C(=O)[C@H](CO)NC(=O)[C@H](CO)NC(=O)[C@H](Cc1c[nH]cn1)NC(=O)[C@H](CCCNC(=N)N)NC(=O)[C@H](CC(C)C)NC(=O)[C@H](Cc1ccccc1)NC(=O)[C@H](CCCCN)NC(=O)[C@H](C)NC(=O)[C@H](CC(C)C)NC(=O)[C@H](CCCNC(=N)N)NC(=O)[C@H](CCC(N)=O)NC(=O)[C@@H](NC(=O)[C@H](C)NC(=O)[C@@H]1CSSC[C@H](NC(=O)[C@@H](N)CCCCNC(=O)COCCOCCNC(=O)CC[C@H](NC(=O)CCCCCCCCCCCCCCCCCCC(=O)O)C(=O)O)C(=O)N[C@@H](CC(N)=O)C(=O)N[C@@H]([C@@H](C)O)C(=O)N[C@@H](C)C(=O)N[C@@H]([C@@H](C)O)C(=O)N1)[C@@H](C)O)C(=O)N1CCC[C@H]1C(=O)N[C@@H](CO)C(=O)N[C@@H](CO)C(=O)N[C@H](C(=O)N1CCC[C@H]1C(=O)N[C@H](C(=O)NCC(=O)N[C@@H](CO)C(=O)N[C@@H](CC(N)=O)C(=O)N[C@H](C(=O)N[C@@H](Cc1ccc(O)cc1)C(N)=O)[C@@H](C)O)C(C)C)[C@@H](C)O
notes: also called compound 74
B5: N^ε1-[2-[2-[2-[[(4S)-4-carboxy-4-(19-carboxynonadecanoylamino)butanoyl]amino]ethoxy]ethoxy]acetyl]-[Ser14,Arg17,Pro21,Pro27,Pro31]-h-amylin (peptide)
peptide: K([AEEA-γGlu-C20 diacid])CNTATCATQRLASFLRHSSPNFGAIPSSTPVGSNTY-NH2
modifications: disulfide 2-7; N-terminus assumed
SMILES: CC[C@H](C)[C@H](NC(=O)[C@H](C)NC(=O)CNC(=O)[C@H](Cc1ccccc1)NC(=O)[C@H](CC(N)=O)NC(=O)[C@@H]1CCCN1C(=O)[C@H](CO)NC(=O)[C@H](CO)NC(=O)[C@H](Cc1c[nH]cn1)NC(=O)[C@H](CCCNC(=N)N)NC(=O)[C@H](CC(C)C)NC(=O)[C@H](Cc1ccccc1)NC(=O)[C@H](CO)NC(=O)[C@H](C)NC(=O)[C@H](CC(C)C)NC(=O)[C@H](CCCNC(=N)N)NC(=O)[C@H](CCC(N)=O)NC(=O)[C@@H](NC(=O)[C@H](C)NC(=O)[C@@H]1CSSC[C@H](NC(=O)[C@@H](N)CCCCNC(=O)COCCOCCNC(=O)CC[C@H](NC(=O)CCCCCCCCCCCCCCCCCCC(=O)O)C(=O)O)C(=O)N[C@@H](CC(N)=O)C(=O)N[C@@H]([C@@H](C)O)C(=O)N[C@@H](C)C(=O)N[C@@H]([C@@H](C)O)C(=O)N1)[C@@H](C)O)C(=O)N1CCC[C@H]1C(=O)N[C@@H](CO)C(=O)N[C@@H](CO)C(=O)N[C@H](C(=O)N1CCC[C@H]1C(=O)N[C@H](C(=O)NCC(=O)N[C@@H](CO)C(=O)N[C@@H](CC(N)=O)C(=O)N[C@H](C(=O)N[C@@H](Cc1ccc(O)cc1)C(N)=O)[C@@H](C)O)C(C)C)[C@@H](C)O
notes: also called compound 73
B6: N^ε1-[2-[2-[2-[[(4S)-4-carboxy-4-(19-carboxynonadecanoylamino)butanoyl]amino]ethoxy]ethoxy]acetyl]-[Thr14,Arg17,Pro21,Pro27,Pro31]-h-amylin (peptide)
peptide: K([AEEA-γGlu-C20 diacid])CNTATCATQRLATFLRHSSPNFGAIPSSTPVGSNTY-NH2
modifications: disulfide 2-7; N-terminus assumed
SMILES: CC[C@H](C)[C@H](NC(=O)[C@H](C)NC(=O)CNC(=O)[C@H](Cc1ccccc1)NC(=O)[C@H](CC(N)=O)NC(=O)[C@@H]1CCCN1C(=O)[C@H](CO)NC(=O)[C@H](CO)NC(=O)[C@H](Cc1c[nH]cn1)NC(=O)[C@H](CCCNC(=N)N)NC(=O)[C@H](CC(C)C)NC(=O)[C@H](Cc1ccccc1)NC(=O)[C@@H](NC(=O)[C@H](C)NC(=O)[C@H](CC(C)C)NC(=O)[C@H](CCCNC(=N)N)NC(=O)[C@H](CCC(N)=O)NC(=O)[C@@H](NC(=O)[C@H](C)NC(=O)[C@@H]1CSSC[C@H](NC(=O)[C@@H](N)CCCCNC(=O)COCCOCCNC(=O)CC[C@H](NC(=O)CCCCCCCCCCCCCCCCCCC(=O)O)C(=O)O)C(=O)N[C@@H](CC(N)=O)C(=O)N[C@@H]([C@@H](C)O)C(=O)N[C@@H](C)C(=O)N[C@@H]([C@@H](C)O)C(=O)N1)[C@@H](C)O)[C@@H](C)O)C(=O)N1CCC[C@H]1C(=O)N[C@@H](CO)C(=O)N[C@@H](CO)C(=O)N[C@H](C(=O)N1CCC[C@H]1C(=O)N[C@H](C(=O)NCC(=O)N[C@@H](CO)C(=O)N[C@@H](CC(N)=O)C(=O)N[C@H](C(=O)N[C@@H](Cc1ccc(O)cc1)C(N)=O)[C@@H](C)O)C(C)C)[C@@H](C)O
notes: also called compound 75

target: T1, human calcitonin receptor; test: ratio of hCTR IC50 to hAmylin-R IC50 (reference: human amylin receptor)
Procedure, shortened: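 IC₅₀ values were derived by one-site competition analysis of SPA counts. Cell membranes (35 ng/μL) with SPA beads were incubated with test compounds for 120 min at 25° C in Hepes buffer, pH 7.4, containing CaCl2, MgCl₂, OA and Tween20.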

For B1, which “Ratio hCT/hAmylin binding” value is on record?
The value was 68.1.

How did the “Ratio hCT/hAmylin binding” value turn out when B2 was run?
The value was 64.4.

How did the “Ratio hCT/hAmylin binding” value turn out when B3 was run?
The value was 65.3.

How did the “Ratio hCT/hAmylin binding” value turn out when B4 was run?
The value was 101.

For B5, which “Ratio hCT/hAmylin binding” value is on record?
Its value is 51.7.

With B6 as the binder, how does the “Ratio hCT/hAmylin binding” value read?
The value was 91.4.

target: T1, human calcitonin receptor; test: SPA competition on BHK cell membranes, 125I-calcitonin as radioligand (Assay VII)
Procedure, shortened: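 BHK hCTR membranes 35 ng/μL + SPA beads 0.05 mg/well; buffer 50 mM Hepes pH 7.4, 1 mM CaCl2, 5 mM MgCl₂, 0.1% OA, 0.02% Tween20. 120 min, 25° C., shaking. Scintillation count; IC50 by one-site binding competition.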

With B1 as the binder, how does the IC50 read?
Its IC50 is 0.0198 µM.

For B2, which IC50 is on record?
Its IC50 is 0.00566 µM.

Which IC50 does the source give for B3 here?
Its IC50 is 0.00868 µM.

With B4 as the binder, how does the IC50 read?
Its IC50 is 0.0799 µM.

B5 was tested. Which IC50 did it give?
Its IC50 is 0.00538 µM.

How did the IC50 turn out when B6 was run?
Its IC50 is 0.0609 µM.
